The source of these data is paper PMC7295619.

A word on the stoichiometry N: it is a count of units in the complex or per binding partner.

The target of the assay is Porcine circovirus type 3 (PCV3) capsid protein (porcine circovirus type 3). In words: cryo-EM structure; in vitro assembled full-length PCV3-VLP, 1 mg/ml, Titan Krios 300 kV, EMAN2 reconstruction with icosahedral symmetry applied, ~8.5 Å.

“Porcine circovirus type 3 (PCV3) capsid protein (natural protein)” came in with a stoichiometry N of 60.
